Measured values as given in publication PMC5423654.

Substrate: S
Experiment: UV-vis quinone reduction, steady-state kinetics
Type: biochemical, Staphylococcus aureus
Details: pH 8.0; 25.0 °C

B1: S. aureus SQR (sulfide:quinone oxidoreductase) (Staphylococcus aureus subsp. aureus NCTC 8325) (protein)
chain: MNKHYQIVIIGGGTAGVTVASRLLRKNQNLKEKIAIIDPADHHYYQPLWTLVGAGVSSLKSSRKDMESVIPEGANWIKQAVSSFQPENNSVILGDNTVVYYDFLVVAPGLQINWSSIKGLKENIGKNGVCSNYSPDYVNETWNQISNFKQGNAIFTHPNTPIKCGGAPMKIMYLAEDYFRKHKIRSNANVIYATPKDALFDVGKYNKELERIVEERNITVNYNYNLVEIDGDKKVATFEHIKAYDRKTISYDMLHVTPPMGPLDVVKESTLSDSEGWVDVNPTTLQHKSYSNVFALGDASNVPTSKTGAAIRKQAPIVANNLLQVMNNQMLTHHYDGYTSCPIVTGYNRLILAEFDYNKNTKETMPFNQAKERRSMYIFKKDLLPKMYWYGMLKGLI
Km: 22 ± 7 µM | Vmax: 0.41 µmol/min/mg | kcat/Km: 14100 ± 4600 M⁻¹ s⁻¹
